Biological target: Homo sapiens ubiquitin (human, UniProt P0CG48 1-76)
Assay: SPR

B1: S. cerevisiae UEV (domain or fragment)
chain: AVVNWLFKVIQPIYNDGRTTFHDSLALLDNFHSLRPRTRVFTHSDGTPQLLLSIYGTISTGEDGSSPHSIPVIMWVPSMYPVKPPFISINLENFDMNTISSSLPIQEYIDSNGWIALPILHCWDPAAMNLIMVVQELMSLLHEPPQDQAP
Binder B1 has a Kd of 37.9 mM.

From doi:10.1101/2023.07.25.550441 (bioRxiv, 2023)
